# Source: patent US20160368965A1 (IMMATICS BIOTECHNOLOGIES, published 2016)
# Target: T1, HLA-A*02:01 (human)
# T1 construct: the tested peptide takes its place; also called peptide-receptive MHC molecules; MHC class I
# Assay: UV-ligand exchange, anti-β2m ELISA; grade of peptide exchange yield
# Description: Candidate peptides for T cell based therapies according to the present invention were further tested for their MHC binding capacity (affinity). The individual peptide-MHC complexes were produced by UV-ligand exchange, where a UV-sensitive peptide is cleaved upon UV-irradiation, and exchanged with the peptide of interest as analyzed. Only peptide candidates that can effectively bind and stabilize the peptide-receptive MHC molecules prevent dissociation of the MHC complexes. To determine the yield of the exchange reaction, an ELISA was performed based on the detection of the light chain (β2m) of stabilized MHC complexes. The assay was performed as generally described in Rodenko et al. (Rodenko et al., 2006).
# 96 well MAXISorp plates (NUNC) were coated over night with 2 ug/ml streptavidin in PBS at room temperature, washed 4× and blocked for 1h at 37° C. in 2% BSA containing blocking buffer. Refolded HLA-A*02:01/MLA-001 monomers served as standards, covering the range of 15-500 ng/ml. Peptide-MHC monomers of the UV-exchange reaction were diluted 100 fold in blocking buffer. Samples were incubated for 1 h at 37° C., washed four times, incubated with 2 ug/ml HRP conjugated anti-β2m for 1h at 37° C., washed again and detected with TMB solution that is stopped with […]. Absorption was measured at 450 nm. Candidate peptides that show a high exchange yield (preferably higher than 50%, most preferred higher than 75%) are generally preferred for a generation and production of antibodies or fragments thereof, and/or T cell receptors or fragments thereof, as they show sufficient avidity to the MHC molecules and prevent dissociation of the MHC complexes.
row,Binder,peptide exchange yield
1,ALDQKVRSV [ALDQKVRSV (SEQ ID NO: 98)],20 to 50%
2,ALVEENGIFEL [ALVEENGIFEL (SEQ ID NO: 101)],50 to 75%
3,ALFGAGPASI [ALFGAGPASI (SEQ ID NO: 100)],50 to 75%
4,ALYPGTDYTV [ALYPGTDYTV (SEQ ID NO: 102)],50 to 75%
5,ALDDMISTL [ALDDMISTL (SEQ ID NO: 97)],50 to 75%
6,ALESFLKQV [ALESFLKQV (SEQ ID NO: 99)],50 to 75%
7,GLLPALVAL [GLLPALVAL (SEQ ID NO: 87)],50 to 75%
8,AVAAVLTQV [AVAAVLTQV (SEQ ID NO: 103)],50 to 75%
9,GLGDFIFYSV [GLGDFIFYSV (SEQ ID NO: 86)],≥ 75%
10,ALADDDFLTV [ALADDDFLTV (SEQ ID NO: 95)],50 to 75%
11,ALAPATGGGSLLL [ALAPATGGGSLLL (SEQ ID NO: 96)],50 to 75%

# Other lines, results leading:
row,peptide exchange yield,Binder
1,50 to 75%,VMMEEFVQL [VMMEEFVQL (SEQ ID NO: 94)]
2,20 to 50%,QIIDAINKV [QIIDAINKV (SEQ ID NO: 9)]
3,50 to 75%,KLLTPITTL [KLLTPITTL (SEQ ID NO: 90)]
4,≥ 75%,YLTNEGIAHL [YLTNEGIAHL (SEQ ID NO: 92)]
5,50 to 75%,SIDSEPALV [SIDSEPALV (SEQ ID NO: 93)]
6,50 to 75%,LLFNDVQTL [LLFNDVQTL (SEQ ID NO: 91)]
7,50 to 75%,KLADIQIEQL [KLADIQIEQL (SEQ ID NO: 89)]
8,50 to 75%,IIDDTIFNL [IIDDTIFNL (SEQ ID NO: 88)]
